Experimental data: PMC8155045

Target: mCherry-YC (37 kDa isoform)
Test: FRET or BRET; FLIM-FRET (phasor analysis) in nuclei of live HeLa cells, eGFP donor and mCherry acceptor, all three NF-Y subunits transfected (third one untagged), 24 h after transfection, 37 degrees, 5% CO2

B1: EGFP-YB (natural protein)
chain: MTMDGDSSTTDASQLGISADYIGGSHYVIQPHDDTEDSMNDHEDTNGSKESFREQDIYLPIANVARIMKNAIPQTGKIAKDAKECVQECVSEFISFITSEASERCHQEKRKTINGEDILFAMSTLGFDSYVEPLKLYLQKFREAMKGEKGIGGAVTATDGLSEELTEEAFTNQLPAGLITTDGQQQNVMVYTTSYQQISGVQQIQFS
Question: What does the source list for B1?
Answer: FRET efficiency: 16%; fraction of FRET (% pixels): 38.2 % pixels
